Laboratory results: patent publication US20120253008A1 (Ablynx, published 2012)

target: T1, human serum albumin (human, UniProt P02768 25-609); experiment: phage ELISA and/or solution binding competition ELISA on HSA
T1 construct: also called HSA

Binding result, binds:
AARYYDYDVFGGGTPLGG [PMP56G6], AAAYWDYDVFGGGTSAGT [PMP54H2], AALYRDYDVFAGGTPGGG [PMP54E2], AARYYDYDVFGGGTPLGG [PMP56E6], AARYYDYDVFGGGTPLGA [PMP56C3], AARYYDYDVFGGGTPLGA [PMP56E3], AARYYDYDVFGGGTPLGA [PMP56E5], AAYYFDYDVFGGGTPEGT [PMP56C1], AATYFDYDVFGGGTAVGS [PMP54G1], AARYLDYDVFGGGTPIGE [PMP54C3], AAYYFDYDVFGGGTPEGT [PMP56G1], AAWYFDYDVFGGGTADGE [PMP56H6], AARYYDYDVFGGGTPLGG [PMP56F5], AAWYRDYDVFGGGTPLGA [PMP56H1], AAWYTDYDVFGGGTPQGG [PMP56F1], AALYKDYDVFGGGTPGGE [PMP56D4], AARYYDYDVFGGGTRSGE [PMP54C1], AAPYHDYDVFGGGTPVGE [PMP56A2], AAWYRDYDVFGGGTDEGS [PMP54B1], AALYGDYDVFGGGTPLGE [PMP54F2], AARYFDYDVFGGGTPAGD [PMP56B2], AAFYWDYDVFGGGTDPGA [PMP56G3], AAYYYDYDVFGGGTPGGE [PMP54G3 (SEQ ID NO: 44)], AARYWDYDVFGGGTPQGE [PMP56B1], AAVYWDYDVFGGGTSLGD [PMP56B6], AAYYYDYDVFGGGTPGGE [PMP56E1], AAMYYDYDVFGGGTPTGA [PMP56C5], AARYPDYDVFGGGTPVGG [PMP54C2], AARYPDYDVFGGGTPSGG [PMP56C6], AASYLDYDVFGGGTPFGE [PMP54H1], AARYWDYDVFGGGTPQGE [PMP56C2], AARYWDYDVFGGGTDPGG [PMP56G2], AAYYRDYDVFGGGTPVGE [PMP56A5], AARYLDYDVFGGGTDVGS [PMP54F3], AARYYDYDVFGGGTAGGQ [PMP56A6], AAWYFDYDVFGGGTADGE [PMP56F3], AAFYWDYDVFGGGTDPGA [PMP56H3], AADYYDYDVFGGGTSVGE [PMP56A1], AAVYDDYDVFGGGTPVGG [PMP56B3], AALYRDYDVFGGGTPVGG [PMP56B5], AALYRDYDVFGGGTPVGG [PMP56F6], AARYFDYDVFGGGTDLGD [PMP54D2], AAAYLDYDVFGGGTPVGG [PMP56G5], AALYRDYDVFGGGTQVGE [PMP54G3 (SEQ ID NO: 49)], AARYLDYDVFGGGTQLGS [PMP54D3]
